Results as given in paper PMC9483108.
Like-named read-outs stand apart in the source and are kept apart here.

T1: RPL (Col-0)-His (Arabidopsis thaliana (Col-0), UniProt Q9LZM8 1-575)
T1 sequence: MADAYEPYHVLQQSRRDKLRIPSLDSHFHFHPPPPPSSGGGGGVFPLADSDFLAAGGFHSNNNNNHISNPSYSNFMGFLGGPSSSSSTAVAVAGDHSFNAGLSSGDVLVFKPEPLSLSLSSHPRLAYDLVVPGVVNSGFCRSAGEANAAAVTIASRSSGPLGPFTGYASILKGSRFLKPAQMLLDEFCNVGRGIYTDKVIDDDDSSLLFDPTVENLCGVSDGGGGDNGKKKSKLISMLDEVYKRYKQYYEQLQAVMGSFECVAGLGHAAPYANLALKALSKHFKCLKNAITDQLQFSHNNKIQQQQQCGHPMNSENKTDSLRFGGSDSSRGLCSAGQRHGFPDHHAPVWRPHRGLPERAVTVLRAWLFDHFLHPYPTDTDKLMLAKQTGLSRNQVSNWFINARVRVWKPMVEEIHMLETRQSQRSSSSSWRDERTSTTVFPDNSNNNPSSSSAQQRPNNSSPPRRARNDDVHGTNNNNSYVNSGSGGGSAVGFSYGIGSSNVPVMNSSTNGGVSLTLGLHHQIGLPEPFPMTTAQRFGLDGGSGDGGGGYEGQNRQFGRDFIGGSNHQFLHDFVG

B1: GH3.3-m1-65bp (dsDNA)
DNA 1: CAAATTGAAAATGTCATTACCACTGATTAAAAAGGAATCAAAAGAAAAAAAGCTTTTAGTATTGA
DNA 2: TCAATACTAAAAGCTTTTTTTCTTTTGATTCCTTTTTAATCAGTGGTAATGACATTTTCAATTTG
B2: CHI-m1-65bp (dsDNA)
DNA 1: CCATTTTTGTTTTTTGTTTTTTCAGTGACAAACTCACATGGATTTCATTTCAGATTCAGTTAGAT
DNA 2: ATCTAACTGAATCTGAAATGAAATCCATGTGAGTTTGTCACTGAAAAAACAAAAAACAAAAATGG
B3: GH3.3-m2-65bp (dsDNA)
DNA 1: AATCAAAAGAAAAAAAGCTTTTAGTATTGAGTATTGACCGTCGCTATCGGTGACAGGCAGAGTCA
DNA 2: TGACTCTGCCTGTCACCGATAGCGACGGTCAATACTCAATACTAAAAGCTTTTTTTCTTTTGATT
B4: CHI-m2-65bp (dsDNA)
DNA 1: GCTATTTTTTTTTTTTTTAATTTTATTGATCAATCAACTGAATACTGAATACAAAAGAAAACCTG
DNA 2: CAGGTTTTCTTTTGTATTCAGTATTCAGTTGATTGATCAATAAAATTAAAAAAAAAAAAAATAGC

Columns and labels:
RPL (Col-0)-His [1] = biological target: T1, RPL (Col-0)-His; assay: EMSA
RPL (Col-0)-His [2] = biological target: T1, RPL (Col-0)-His; assay: EMSA; remark: listed apart in the source

Binder | binding result (RPL (Col-0)-His [1]) | binding result (RPL (Col-0)-His [2])
B1 | binds | –
B2 | – | binds
B3 | binds | –
B4 | – | binds
